Data reported in PMC8810855.

Target: Arp2/3 complex (bovine brain) (bovine) (UniProt P61157)
Assay: ITC; full-length Arpin in the syringe, ATP-bound Arp2/3 complex in the cell; 25 °C; Arp buffer (20 mM HEPES pH 7.5, 100 mM KCl, 1 mM MgCl2, 1 mM EGTA, 1 mM DTT) with 0.2 mM ATP; one-site isotherm

Kd: 1240 nM
stoichiometry N: 1.06
Substance: full-length human Arpin (from UniProt Q7Z6K5 1-226) (natural protein)
